The results in this text go back to PMC5345129.

Assay [1] deals with myc-tagged, constitutively active Gα12 (GTPase-deficient Q229L mutant) (UniProt P27600). The assay can be described thus: GST co-precipitation (pull-down), immunoblot bands quantified with ImageJ. Particulars: parent: 100; read off a plot.
For assay [2], the target named is GST-fusion of the RH domain of LARG (leukemia-associated RhoGEF). The assay can be described thus: GST co-precipitation (pull-down) from HEK293 cell extracts, immunoblot bands quantified with ImageJ. Particulars: parent: est. 100; read off a plot. (In general: A western blot detects proteins with antibodies after separation by electrophoresis.)
Assay [3] concerns the target GST-fusion of the 257-amino acid C-terminus of AKAP-Lbc. The description is as above. As to conditions: parent: est. 100; read off a plot.
For assay [4], the target named is GST-fusion of the 257-amino acid region of p114RhoGEF corresponding to the Gα12-binding region of AKAP-Lbc. The description is as above. As to conditions: parent: est. 100; read off a plot.
Assay [5] has as its target GST-fusion of the 257-amino acid C-terminus of AKAP-Lbc (human). The assay can be described thus: pull-down; GST fusion proteins bound to Glutathione Sepharose 4B; Gα variants from high-speed supernatants of transfected HEK293 cells, detergent diluted to 0.05% polyoxyethylene-10-lauryl ether; 50 mM HEPES pH 7.5, 1 mM EDTA, 3 mM dithiothreitol, 10 mM MgSO4; 2 h at 4°C; three washes; immunoblot (anti-Gα12, anti-myc or anti-EGFP); 5% of the extract kept as load.

Assay [6] concerns the target T1, GST-fusion of the 257-amino acid region of p114RhoGEF corresponding to the Gα12-binding region of AKAP-Lbc (human).
T1 sequence (Q6ZSZ5 whole entry, looked up): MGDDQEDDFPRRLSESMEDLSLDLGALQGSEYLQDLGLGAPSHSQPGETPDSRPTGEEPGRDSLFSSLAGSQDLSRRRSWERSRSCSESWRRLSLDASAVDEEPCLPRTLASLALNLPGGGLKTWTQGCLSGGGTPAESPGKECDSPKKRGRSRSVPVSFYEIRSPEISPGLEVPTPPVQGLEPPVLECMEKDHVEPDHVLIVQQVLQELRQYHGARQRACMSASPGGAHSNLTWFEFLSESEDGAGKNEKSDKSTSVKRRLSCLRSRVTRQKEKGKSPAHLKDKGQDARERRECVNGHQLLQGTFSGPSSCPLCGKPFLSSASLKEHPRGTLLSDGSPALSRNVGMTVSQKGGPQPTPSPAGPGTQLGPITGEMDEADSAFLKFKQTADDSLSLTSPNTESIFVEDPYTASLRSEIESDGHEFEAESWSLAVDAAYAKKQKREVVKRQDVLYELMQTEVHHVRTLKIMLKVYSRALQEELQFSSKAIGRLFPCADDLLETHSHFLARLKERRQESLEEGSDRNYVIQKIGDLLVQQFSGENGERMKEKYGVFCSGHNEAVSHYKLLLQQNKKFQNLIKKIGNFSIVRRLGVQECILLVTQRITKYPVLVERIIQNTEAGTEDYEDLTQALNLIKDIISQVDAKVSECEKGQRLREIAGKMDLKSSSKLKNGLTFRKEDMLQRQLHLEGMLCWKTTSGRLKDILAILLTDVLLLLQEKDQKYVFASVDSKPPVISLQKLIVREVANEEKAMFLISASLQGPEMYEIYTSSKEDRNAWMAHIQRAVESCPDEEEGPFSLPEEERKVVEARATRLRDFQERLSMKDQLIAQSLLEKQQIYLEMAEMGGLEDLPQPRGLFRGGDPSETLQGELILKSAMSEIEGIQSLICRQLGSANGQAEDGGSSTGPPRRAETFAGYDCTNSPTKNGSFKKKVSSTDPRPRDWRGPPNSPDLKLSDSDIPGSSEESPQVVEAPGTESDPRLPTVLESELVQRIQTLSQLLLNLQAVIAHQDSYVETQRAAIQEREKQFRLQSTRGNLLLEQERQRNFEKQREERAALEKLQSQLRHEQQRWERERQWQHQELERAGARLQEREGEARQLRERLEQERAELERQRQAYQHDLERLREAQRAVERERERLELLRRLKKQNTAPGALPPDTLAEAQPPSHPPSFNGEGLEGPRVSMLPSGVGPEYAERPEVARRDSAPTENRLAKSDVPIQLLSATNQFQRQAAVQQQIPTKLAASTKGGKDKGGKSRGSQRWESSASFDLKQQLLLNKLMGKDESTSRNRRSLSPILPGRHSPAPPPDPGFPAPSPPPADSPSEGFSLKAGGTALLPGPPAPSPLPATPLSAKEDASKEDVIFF
The description is as above.

Sequence of GST-fusion of the 257-amino acid C-terminus of AKAP-Lbc (human) (Q12802 whole entry, the tested form may be a part): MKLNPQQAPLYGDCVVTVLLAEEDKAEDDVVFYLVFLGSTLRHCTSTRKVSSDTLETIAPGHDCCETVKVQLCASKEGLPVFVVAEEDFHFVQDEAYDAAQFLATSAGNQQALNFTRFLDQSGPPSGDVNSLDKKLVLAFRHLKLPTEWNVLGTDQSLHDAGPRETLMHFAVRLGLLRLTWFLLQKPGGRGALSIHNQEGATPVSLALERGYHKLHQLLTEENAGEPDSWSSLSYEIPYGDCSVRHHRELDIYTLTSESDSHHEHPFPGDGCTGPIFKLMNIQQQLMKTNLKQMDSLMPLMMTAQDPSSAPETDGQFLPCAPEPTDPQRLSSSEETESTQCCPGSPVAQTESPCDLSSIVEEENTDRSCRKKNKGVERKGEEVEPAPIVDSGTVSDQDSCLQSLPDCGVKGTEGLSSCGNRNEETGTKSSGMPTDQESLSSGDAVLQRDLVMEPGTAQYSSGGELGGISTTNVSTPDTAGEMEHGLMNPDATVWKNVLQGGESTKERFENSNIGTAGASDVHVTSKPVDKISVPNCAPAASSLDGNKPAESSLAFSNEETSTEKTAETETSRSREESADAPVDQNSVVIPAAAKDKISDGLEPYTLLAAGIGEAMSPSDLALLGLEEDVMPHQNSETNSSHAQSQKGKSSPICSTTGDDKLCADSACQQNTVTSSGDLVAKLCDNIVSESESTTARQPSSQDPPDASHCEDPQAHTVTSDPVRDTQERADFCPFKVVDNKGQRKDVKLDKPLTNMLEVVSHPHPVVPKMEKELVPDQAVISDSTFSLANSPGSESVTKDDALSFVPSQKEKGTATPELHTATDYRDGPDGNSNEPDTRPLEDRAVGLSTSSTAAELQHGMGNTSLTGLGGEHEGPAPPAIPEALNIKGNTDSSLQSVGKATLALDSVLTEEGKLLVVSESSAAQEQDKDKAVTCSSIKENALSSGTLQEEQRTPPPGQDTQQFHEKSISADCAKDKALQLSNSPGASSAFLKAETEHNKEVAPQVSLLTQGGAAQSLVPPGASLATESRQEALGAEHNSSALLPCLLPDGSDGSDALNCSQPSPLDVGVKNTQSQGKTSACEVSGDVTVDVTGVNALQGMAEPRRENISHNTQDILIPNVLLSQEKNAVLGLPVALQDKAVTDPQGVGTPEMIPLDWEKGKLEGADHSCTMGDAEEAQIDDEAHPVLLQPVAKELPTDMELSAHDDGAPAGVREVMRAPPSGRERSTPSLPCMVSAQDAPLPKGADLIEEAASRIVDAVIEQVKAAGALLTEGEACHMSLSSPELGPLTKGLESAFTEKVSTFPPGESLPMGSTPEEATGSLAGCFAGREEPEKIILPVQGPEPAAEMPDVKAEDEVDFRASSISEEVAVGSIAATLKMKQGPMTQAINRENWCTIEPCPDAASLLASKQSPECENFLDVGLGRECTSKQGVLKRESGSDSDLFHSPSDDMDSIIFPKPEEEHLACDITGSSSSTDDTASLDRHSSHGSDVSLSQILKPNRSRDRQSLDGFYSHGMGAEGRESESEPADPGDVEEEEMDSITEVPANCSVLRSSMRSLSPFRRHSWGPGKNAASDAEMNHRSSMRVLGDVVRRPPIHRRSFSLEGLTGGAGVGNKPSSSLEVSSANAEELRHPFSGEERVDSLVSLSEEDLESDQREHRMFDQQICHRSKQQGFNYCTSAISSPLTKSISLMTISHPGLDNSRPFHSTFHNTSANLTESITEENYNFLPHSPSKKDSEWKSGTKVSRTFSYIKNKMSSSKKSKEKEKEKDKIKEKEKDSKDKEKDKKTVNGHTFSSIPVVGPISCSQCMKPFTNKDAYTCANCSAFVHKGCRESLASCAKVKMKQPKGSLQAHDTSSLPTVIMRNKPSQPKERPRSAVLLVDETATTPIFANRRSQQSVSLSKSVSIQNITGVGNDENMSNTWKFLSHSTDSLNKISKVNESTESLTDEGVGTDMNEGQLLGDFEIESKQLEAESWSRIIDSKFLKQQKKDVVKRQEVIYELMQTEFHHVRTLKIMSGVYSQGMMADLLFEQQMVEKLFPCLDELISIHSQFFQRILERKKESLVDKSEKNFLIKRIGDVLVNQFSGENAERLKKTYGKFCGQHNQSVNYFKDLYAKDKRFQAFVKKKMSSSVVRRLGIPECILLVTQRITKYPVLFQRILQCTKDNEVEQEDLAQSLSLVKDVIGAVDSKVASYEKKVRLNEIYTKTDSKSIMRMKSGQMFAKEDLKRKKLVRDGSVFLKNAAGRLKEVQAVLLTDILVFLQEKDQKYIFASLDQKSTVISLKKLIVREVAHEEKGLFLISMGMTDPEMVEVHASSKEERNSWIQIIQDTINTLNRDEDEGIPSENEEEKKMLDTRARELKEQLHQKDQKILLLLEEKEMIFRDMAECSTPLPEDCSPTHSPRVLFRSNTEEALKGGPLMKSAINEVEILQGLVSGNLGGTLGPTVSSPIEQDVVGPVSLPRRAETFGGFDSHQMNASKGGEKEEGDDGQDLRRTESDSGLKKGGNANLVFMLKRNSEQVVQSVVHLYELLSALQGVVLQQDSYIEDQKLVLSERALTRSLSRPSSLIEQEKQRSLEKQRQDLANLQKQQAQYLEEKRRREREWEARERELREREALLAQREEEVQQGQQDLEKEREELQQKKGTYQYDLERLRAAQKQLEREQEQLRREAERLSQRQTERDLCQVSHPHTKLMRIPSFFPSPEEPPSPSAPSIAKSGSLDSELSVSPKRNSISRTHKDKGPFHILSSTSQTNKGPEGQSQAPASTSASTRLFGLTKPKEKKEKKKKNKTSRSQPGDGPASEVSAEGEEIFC

“GST-fusion of the 257-amino acid C-terminus of AKAP-Lbc E2576R”: the percent of parent in assay [1] is 29 % of control.

For the molecule “GST-fusion of the 257-amino acid C-terminus of AKAP-Lbc E2670R”, the percent of parent in assay [1] is 33 % of control.

As to “GST-fusion of the 257-amino acid region of p114RhoGEF corresponding to the Gα12-binding region of AKAP-Lbc E695R”, the percent of parent in assay [1] is 42 % of control.

For “GST-fusion of the 257-amino acid region of p114RhoGEF corresponding to the Gα12-binding region of AKAP-Lbc E789R”, in assay [1], the percent of parent is 37 % of control.

For “myc-tagged, constitutively active Gα12 (GTPase-deficient Q229L mutant) (from UniProt P27600) C11A”, the percent of parent (% of 12QL control) in assay [2] turned out to be 92.

On to “myc-tagged, constitutively active Gα12 (GTPase-deficient Q229L mutant) (from UniProt P27600) Δ244-249 (sextet Asn-Ala-Ala-Ile-Arg-Ser in place of native residues 244-249)”, for which the percent of parent (% of 12QL control) is 105 in assay [3], 95 in assay [4] and 16 in assay [2].

B1: myc-tagged, constitutively active Gα12 (Q229L) with C11A substitution (natural protein)
chain: MSGVVRTLSRALLPAEAGARERRAGAARDAEREARRRSRDIDALLARERRAVRRLVKILLLGAGESGKSTFLKQMRIIHGREFDQKALLEFRDTIFDNILKGSRVLVDARDKLGIPWQHSENEKHGMFLMAFENKAGLPVEPATFQLYVPALSALWRDSGIREAFSRRSEFQLGESVKYFLDNLDRIGQLNYFPSKQDILLARKATKGIVEHDFVIKKIPFKMVDVGGLRSQRQKWFQCFDGITSILFMVSSSEYDQVLMEDRRTNRLVESMNIFETIVNNKLFFNVSIILFLNKMDLLVEKVKSVSIKKHFPDFKGDPHRLEDVQRYLVQCFDRKRRNRSKPLFHHFTTAIDTENIRFVFHAVKDTILQENLKDIMLQ
Turning to B1, the % loss of binding (co-precipitated Gα12 normalized for starting material, against non-mutated Gα12 Q229L) stood at 60% in assay [5] and 72% in assay [6].
